{"source": "patent US20200181597A1", "about": "“Composition and Application of Arginine-depleting Agents for Cancer, Obesity, Metabolic Disorders, and Related Complications and Comorbidities” (THE HONG KONG POLYTECHNIC UNIVERSITY, priority 2018, published 2020)", "key": {"[1]": {"tested_on": "mouse 3T3-L1 preadipocytes", "assay": "3T3-L1 preadipocyte differentiation (oil red O, qRT-PCR)", "type": "cell-based", "procedure": "FIG. 23 illustrates that arginine depletion by adding N-ABD094-rhArg (SEQ ID NO: 50) (rhArg), bovine arginase or native arginine deiminase (ADI) to the culture medium, or using arginine-free medium inhibited the differentiation of mouse 3T3-L1 preadipocytes into adipocytes. […] (*The culture medium contains 0.4 mM L-arginine and can be converted into 0.4 mM L-ornithine and 0.4 mM urea by arginase, or 0.4 mM L-citrulline by ADI.). Cells grown in culture medium without addition of arginine depleting agents or metabolic products of arginase/ADI served as the control. Lipids in cells were stained with oil red O at 6 days after exposure to specific differentiation-inducing factors added to the medium.\nFIG. 24 illustrates that N-ABD094-rhArg (SEQ ID NO: 50) could suppress adipogenic and lipogenic genes in 3T3-L1 preadipocytes. Mouse 3T3-L1 preadipocytes were cultured for 6 days in medium supplemented with specific factors to induce differentiation into adipocytes (differentiated). Cells grown in medium without these factors remained undifferentiated. The medium was added with 2U/mL N-ABD094-rhArg (SEQ ID NO: 50) (rhArg). Cells grown in medium without the addition of N-ABD094-rhArg served as the control. The mRNA expression levels of several crucial (A) transcriptional regulators of adipogenesis, and (B) enzymes in lipogenic pathways were determined by real-time qRT-PCR, and expressed relative to the undifferentiated (control) group, which is set as 1. *P<0.05, one-way ANOVA followed by Fisher's LSD. Data are expressed as mean±SEM, n=3 for each group.\nFIG. 25 illustrates the response of 3T3-L1 preadipocytes to various concentrations of arginine Mouse 3T3-L1 preadipocytes were cultured in arginine-free medium with or without addition of varying concentrations of L-arginine for 6 days. Cells cultured in normal arginine-containing medium supplemented with differentiation inducing factors served as the positive (+ve) control of differentiation, while cells cultured in normal arginine-containing medium without supplementation of differentiation inducing factors served as the negative (−Ve) control of differentiation. One group of cells was cultured in normal arginine-containing medium supplemented with differentiation inducing factors and treated with 5U/mL N-ABD094-rhArg (SEQ ID NO: 50) (rhArg) to inhibit differentiation. (A) Cells were stained for lipids with oil red O, and staining intensity was quantified by measuring optical density, which is expressed as the percentage against the +ve control group. (B) The mRNA levels of several crucial lipogenesis related genes are expressed relative to cells cultured in arginine-free medium, which is set as 1. Data are expressed as mean±SEM, n=3 for each group.\nTo test the effect of N-ABD094-rhArg (SEQ ID NO: 50) on fat cells, mouse 3T3-L1 preadipocytes were used, which are commonly employed as cell-based model for studying adipogenesis [Green and Meuth, 1974, Cell 3:127-133]."}, "[2]": {"assay": "Enzyme kinetics after metal ion substitution", "type": "biochemical", "procedure": "Wild type arginase typically includes a Mn^2+ metal ion (D′Antonio & Christianson, 2011, Biochemistry, 50:8018-27). […] Purified N-ABD094-rhArg (SEQ ID NO: 50) in 20 mM Tris-HCl buffer (pH 7.4) was mixed with 20 mM of different divalent metal ions (Mn^2+, Ni^2+ or Co^2+), and was incubated at 52-55° C. for 15-60 min and then buffer exchanged with PBS buffer (pH 7.4).\nSamples were subjected to enzyme activity and enzyme kinetic studies to determine the specific activity and catalytic efficiency (kcat/Km). Samples were applied to inductively coupled plasma atomic emission spectroscopy (ICP-OES, Agilent 700 Series ICP optical emission spectrometer) for quantitative analysis of metal content."}, "[3]": {"assay": "Normal lean mice on chow diet, 500U at 10-day intervals for 4 weeks", "type": "in vivo, C57BL/6J male mice", "description": "Thus, we treated normal lean C57BL/6J male mice fed an ordinary chow diet via i.p. injection of 500U N-ABD094-rhArg (SEQ ID NO: 50) at 10-day intervals for 4 weeks. After 4 weeks of treatment, there was over 25% reduction of visceral (perigondal, perirenal and mesenteric fad pad) and subcutaneous (inguinal fat pad) fat mass (FIG. 15A) in comparison with the control mice injected with the vehicle (saline).\nObesity is highly associated with insulin resistance. We therefore conducted both in vivo and in vitro study to determine whether N-ABD094-rhArg (SEQ ID NO: 50) treatment will have effects on insulin sensitivity. […] At 24-hour after culture in N-ABD094-rhArg (SEQ ID NO: 50) or control (without addition of N-ABD094-rhArg) medium, primary hepatocytes were stimulated with 100 nM insulin for 20 min. Cells were then collected for Western blot analysis to detect phosphorylated protein kinase B (pAkt), which is commonly used as marker of insulin signaling."}, "[4]": {"assay": "Treatment of pre-existing HFD-induced obesity (DIO), male mice", "type": "in vivo, C57BL/6J male mice", "description": "After confirming that concurrent treatment with N-ABD094-rhArg (SEQ ID NO: 50) can effectively prevent HFD-induced obesity and associated complications and comorbidities including insulin resistance, glucose intolerance, hyperglycemia, dyslipidemia, hepatic steatosis, chronic inflammation, and whitening of BAT, next, we studied the efficacy of N-ABD094-rhArg (SEQ ID NO: 50) in reducing obesity and reversing these disorders in mice with pre-existing diet-induced obesity (DIO). C57BL/6J male mice were fed a HFD from 5 week old for 12 weeks to induce obesity and associated complications and comorbidities. They were then stratified according to the bodyweight into 2 groups and treated with either 600-700U N-ABD094-rhArg (SEQ ID NO: 50) or saline as vehicle control at 7-day intervals for 12 weeks while continued to be fed the HFD. One group of mice were fed a matched low fat diet (LFD) and injected with saline throughout the study to serve as the lean control of various measurements. Two cohorts, with n=5 in each group, have been separately conducted. Mice were housed in groups of 5. Similar results were obtained in the two independent cohorts. Data of one cohort of mice were presented in Examples 23-28."}, "[5]": {"conditions": "500U at 10-day intervals, 4 weeks"}}, "data": [{"molecule": "N-ABD094-rhArg: albumin binding domain ABD094 fused N-terminally to recombinant human arginase I, SEQ ID NO: 50 (protein, Mn2+; N-ABD094-rhArg, Synthesized in the Lab) MHHHHHHDEAVDANSLAEAKEAANAELDSYGVSDFYKRLIDKAKTVEGVEALKDAILAALPSGSNNNNNNGSGGMSAKSRTIGIIGAPFSKGQPRGGVEEGPTVLRKAGLLEKLKEQECDVKDYGDLPFADIPNDSPFQIVKNPRSVGKASEQLAGKVAEVKKNGRISLVLGGDHSLAIGSISGHARVHPDLGVIWVDAHTDINTPLTTTSGNLHGQPVSFLLKELKGKIPDVPGFSWVTPCISAKDIVYIGLRDVDPGEHYILKTLGIKYFSMTEVDRLGIGKVMEETLSYLLGRKKRPIHLSFDVDGLDPSFTPATGTPVVGGLTYREGLYITEEIYKTGLLSGLDIMEVNPSLGKTPEEVTRTVNTAVAITLACFGLAREGNHKPIDYLNPPK", "values": [{"measurement": "mRNA levels of adipogenic transcription factors and lipogenic enzymes", "setting": "[1]; 2U/mL, 6 days", "value": "significantly suppressed"}, {"measurement": "adipogenesis and lipogenesis in 3T3-L1 cells (oil red O)", "setting": "[1]; added to culture medium, 6 days of differentiation", "value": "effectively inhibit"}, {"measurement": "Km", "setting": "[2]", "value": "1370 to 1890", "unit": "µM"}, {"measurement": "kcat", "setting": "[2]", "value": "82 to 98", "unit": "s⁻¹"}, {"measurement": "mRNA levels of Acc1, Fasn, Scd1 in visceral WAT and liver", "setting": "[3]; [5]", "value": "dramatically suppressed"}, {"measurement": "size of adipocytes in visceral WAT (histology)", "setting": "[3]; [5]", "value": "prominent reduction"}, {"measurement": "reduction of visceral and subcutaneous fat mass vs vehicle", "setting": "[3]; 500U i.p. at 10-day intervals, after 4 weeks", "value": "over 25%"}, {"measurement": "insulin sensitivity in insulin tolerance test (ITT)", "setting": "[3]; after 2 weeks of treatment", "value": "significant increase"}, {"measurement": "HOMA-IR score", "setting": "[4]; 4 weeks after treatment (35.1 prior to treatment)", "value": 1.2}, {"measurement": "Mcp1 and Tgfb expression in pancreas", "setting": "[4]; 12 weeks", "value": "significantly downregulate"}, {"measurement": "Mcp1 expression in perigonadal WAT", "setting": "[4]; 12 weeks", "value": "significantly downregulated"}, {"measurement": "WAT within the pancreas and heart (histology)", "setting": "[4]; 12 weeks", "value": "prominent reduction"}, {"measurement": "amount of collagen fibres in kidney (Sirius red)", "setting": "[4]; 12 weeks", "value": "prominently reduced"}, {"measurement": "anti-inflammatory genes (Il10, Il22, Infg) in liver", "setting": "[4]; 12 weeks", "value": "markedly upregulate"}, {"measurement": "lipid droplets in liver (oil red O)", "setting": "[4]; 12 weeks", "value": "dramatic clearance"}, {"measurement": "liver triglyceride concentrations", "setting": "[4]; 12 weeks", "value": "reduced to a level similar to the lean control"}, {"measurement": "plasma ALT and AST concentrations", "setting": "[4]; 12 weeks", "value": "comparable to the lean control"}, {"measurement": "profibrotic gene Col1a1 in kidney", "setting": "[4]; 12 weeks", "value": "greatly suppressed"}, {"measurement": "profibrotic gene Tgfb in liver", "setting": "[4]; 12 weeks", "value": "restored to a level similar to the lean control"}, {"measurement": "proinflammatory genes (Il1a, Il1b) in liver", "setting": "[4]; 12 weeks", "value": "significantly downregulate"}, {"measurement": "proinflammatory genes (Mcp1, Tnfa, Il1b) in kidney, downregulated to", "setting": "[4]; 12 weeks", "value": "levels similar to the lean control"}, {"measurement": "serum concentrations of Mcp1", "setting": "[4]; 12 weeks", "value": "corrected to a level similar to the lean control mice"}, {"measurement": "triglyceride concentrations in kidney, pancreas, heart and skeletal muscle", "setting": "[4]; 12 weeks", "value": "restored a level similar to the lean control"}, {"measurement": "vacuoles in renal tubules and lipids in glomeruli (histology)", "setting": "[4]; 12 weeks", "value": "marked reduction"}, {"measurement": "weight of kidney, pancreas and heart", "setting": "[4]; 12 weeks, to a level similar to lean control", "value": "significantly reduce"}, {"measurement": "reduction of bodyweight", "setting": "[4]; 600-700U at 7-day intervals, by 5 weeks, HFD continued", "value": "over 30%"}, {"measurement": "fasting plasma leptin and total cholesterol levels", "setting": "[4]; 600-700U weekly", "value": "markedly reduced to normal levels"}, {"measurement": "adipocyte size in WAT (histology)", "setting": "[4]; 600-700U weekly, 12 weeks", "value": "prominent diminution"}, {"measurement": "weight of fat pad at visceral and subcutaneous depots", "setting": "[4]; 600-700U weekly, 12 weeks", "value": "significantly reduced"}, {"measurement": "mRNA levels of lipogenesis related genes in liver", "setting": "[4]; 600U weekly, 12 weeks", "value": "significantly downregulated"}, {"measurement": "glucose tolerance (GTT)", "setting": "[4]; by 3 weeks of treatment", "value": "significant improvement"}, {"measurement": "fasting blood glucose and plasma insulin", "setting": "[4]; by 4 weeks of treatment", "value": "restored to levels similar to the lean control mice"}, {"measurement": "insulin sensitivity (ITT)", "setting": "[4]; by 4 weeks of treatment, comparable to lean control", "value": "marked increase"}, {"measurement": "glucose tolerance (GTT)", "setting": "[4]; by 7 weeks of treatment, level similar to lean control", "value": "fully restored"}]}]}
